In patent US20120316071A1 (published 2012):
Positions count from the first letter of the chain named. Names and notes keep the numbering of the source. Where two headings read alike, the source gives them in different places.

Key:
[1] = molecular target: T1, Recombinant Human DLL4 (human, UniProt Q9NR61 27-524); experiment: ECL (MSD) 96-well plate assay; plate coated with 30 ug/mL DLL4; 0.02 uM Fab
T1 construct: Bought recombinant protein (R&D Systems Cat#1506-D4/CF); also called delta-like protein 4; Delta-like 4

[2] = molecular target: T1, Recombinant Human DLL4; experiment: ECL (MSD) 96-well plate assay; plate coated with 15 ug/mL DLL4; 0.004 uM Fab
[3] = molecular target: T2, Recombinant Human DLL4 (delta-like protein 4) (human, UniProt Q9NR61 27-529); experiment: ECL (MSD) multispot assay; Fab 0.01 µM
T2 construct: Bought recombinant protein (R&D Systems Cat#1506-D4/CF); also called rHuman DLL4; Delta-like 4

[4] = molecular target: T2, Recombinant Human DLL4 (delta-like …); experiment: ECL (MSD) multispot assay; Fab 0.1 µM
[5] = molecular target: T3, Recombinant Human DLL4 (human, UniProt Q9NR61 27-524); experiment: ELISA, DLL4 coated, 100 nM Fab
T3 construct: Bought recombinant protein (R&D Systems Cat#1506-D4/CF), coated on the plate; also called delta-like protein 4; Delta-like 4

[6] = molecular target: T3, Recombinant Human DLL4; experiment: ECL 96-well plate binding assay, DLL4 immobilised, 10 nM Fab
[7] = molecular target: T4, Recombinant Human DLL4 (delta-like protein 4) (human, UniProt Q9NR61 27-529); experiment: 96-well plate ECL (MSD) binding assay on coated DLL4, 10 nM Fab
T4 construct: Bought recombinant human DLL4 (R&D Systems Cat#1506-D4/CF), coated on the plate; also called rHuman DLL4; Delta-like 4

[8] = molecular target: T4, Recombinant Human DLL4 (delta-like …); experiment: ELISA on coated DLL4, 100 nM Fab
[9] = molecular target: T4, Recombinant Human DLL4 (delta-like …); experiment: ELISA on coated DLL4, 100 nM Fab; remark: listed apart in the source

B1: Fab VH1-46_IGHD6-6*01_IGHJ1*01 & L6_IGKJ1*01 (Fab, V domains shown)
VH: QVQLVQSGAEVKKPGASVKVSCKASGYTFTSYYMHWVRQAPGQGLEWMGIINPSGGSTSYAQKFQGRVTMTRDTSTSTVYMELSSLRSEDTAVYYCAREEYSSSSAEYFQHWGQGTLVTVSS
VL: not shown
notes: Tested as a Fab made in E. coli; VH was cloned into Plasmid A (CH1 constant region, His6 and Flag tags) and the kappa VL into Plasmid C (kappa CL); also called parent "Hit" Fab; parental
- ECL signal [1]: 8710
- Signal/Noise [1]: 23
- ECL signal [2]: 4260
- Signal/Noise [2]: 29.2

B2: Fab VH1-46_IGHD6-6*01_IGHJ1*01 & L6_IGKJ1*01 (Fab, V domains shown)
VH: B1 VH
VL: not shown
notes: Germline 'Hit' Fab; The VH was cloned into Plasmid A (CH1, His6 and Flag tags) and the kappa VL into Plasmid C (kappa CL); expressed in E. coli; also called Parent; parental
- ECL signal [3]: 1030
- Signal/Noise [3]: 4.9
- ECL signal [4]: 7000
- Signal/Noise [4]: 40.9

B3: Fab VH1-46_IGHD6-6*01_IGHJ1*01 S102A/S103P/S104F/H111F/I51T/N52L/S54T/G56H & L6_IGKJ1*01 (Fab, V domains shown)
VH: B1 VH with I51T, N52L, S54T, G56H, S102A, S103P, S104F, H111F
VL: not shown
notes: Tested as Fab expressed in E. coli: VH cloned into plasmid A (CH1 constant region, His6 and Flag tags), kappa VL cloned into plasmid C (kappa CL); also called APFF TLTH; H:APFF TLTH
- ELISA signal [5]: 0.641
- ECL signal [6]: 123000

B4: Fab VH1-46_IGHD6-6*01_IGHJ1*01 S102A/S103P/S104F/H111F/I51A/N52L/S54T/G56H (APFF ALTH) & L6_IGKJ1*01 (Fab, V domains shown)
VH: B1 VH with I51A, N52L, S54T, G56H, S102A, S103P, S104F, H111F
VL: not shown
notes: Fab made in E. coli; CH1 with tags and kappa CL are not included
- ECL signal [7]: 143000
- ELISA signal [8]: 0.62

B5: Fab VH1-46_IGHD6-6*01_IGHJ1*01 S102A/S103P/S104F/H111F/I51T/N52L/P53S/S54T/G56H & L6_IGKJ1*01 (Fab, V domains shown)
VH: B1 VH with I51T, N52L, P53S, S54T, G56H, S102A, S103P, S104F, H111F
VL: not shown
notes: Tested as Fab expressed in E. coli (CH1 with His6/Flag tags from plasmid A; kappa CL from plasmid C); also called APFF TLSTH
- ELISA signal [5]: 0.076
- ECL signal [6]: 135000

B6: Fab VH1-46_IGHD6-6*01_IGHJ1*01 S102A/S103P/S104F/H111F/I51T/N52L/P53H/S54T/G56H & L6_IGKJ1*01 (Fab, V domains shown)
VH: B1 VH with I51T, N52L, P53H, S54T, G56H, S102A, S103P, S104F, H111F
VL: not shown
notes: Tested as Fab expressed in E. coli (CH1 with His6/Flag tags from plasmid A; kappa CL from plasmid C); also called APFF TLHTH
- ELISA signal [5]: 0.287
- ECL signal [6]: 108000

B7: Fab VH1-46_IGHD6-6*01_IGHJ1*01 S102A/S103P/S104F/H111F/I51E/N52L/S54T/G56H (APFF ELTH) & L6_IGKJ1*01 (Fab, V domains shown)
VH: B1 VH with I51E, N52L, S54T, G56H, S102A, S103P, S104F, H111F
VL: not shown
notes: as for B4
- ECL signal [7]: 167000
- ELISA signal [8]: 0.995

B8: Fab VH1-46_IGHD6-6*01_IGHJ1*01 S102A/S103P/S104F/H111F/I51T/N52L/P53V/S54T/G56H & L6_IGKJ1*01 (Fab, V domains shown)
VH: B1 VH with I51T, N52L, P53V, S54T, G56H, S102A, S103P, S104F, H111F
VL: not shown
notes: Tested as Fab expressed in E. coli (CH1 with His6/Flag tags from plasmid A; kappa CL from plasmid C); also called APFF TLVTH
- ELISA signal [5]: 0.035
- ECL signal [6]: 91500

B9: Fab VH1-46_IGHD6-6*01_IGHJ1*01 S103P & L6_IGKJ1*01 (Fab, V domains shown)
VH: B1 VH with S103P
VL: not shown
notes: Fab; The VH was cloned into Plasmid A (CH1, His6 and Flag tags) and the kappa VL into Plasmid C (kappa CL); expressed in E. coli
- ECL signal [3]: 4100
- Signal/Noise [3]: 22.9
- ECL signal [4]: 19300
- Signal/Noise [4]: 139

B10: Fab VH1-46_IGHD6-6*01_IGHJ1*01 S102A/S103P/S104F/H111F/I51H/N52L/S54T/G56H (APFF HLTH) & L6_IGKJ1*01 (Fab, V domains shown)
VH: B1 VH with I51H, N52L, S54T, G56H, S102A, S103P, S104F, H111F
VL: not shown
notes: as for B4
- ECL signal [7]: 155000
- ELISA signal [8]: 0.647

B11: Fab VH1-46_IGHD6-6*01_IGHJ1*01 S102A/S103P/S104F/H111F/I51T/N52L/P53E/S54T/G56H & L6_IGKJ1*01 (Fab, V domains shown)
VH: B1 VH with I51T, N52L, P53E, S54T, G56H, S102A, S103P, S104F, H111F
VL: not shown
notes: Tested as Fab expressed in E. coli (CH1 with His6/Flag tags from plasmid A; kappa CL from plasmid C); also called APFF TLETH
- ELISA signal [5]: 0.017
- ECL signal [6]: 91500

B12: Fab VH1-46_IGHD6-6*01_IGHJ1*01 S102A & L6_IGKJ1*01 (Fab, V domains shown)
VH: B1 VH with S102A
VL: not shown
notes: Heavy chain CDR3 alanine mutant of the parent Fab; Fab format with CH1, kappa CL, His6 and Flag tags from the expression plasmids
- ECL signal [1]: 19100
- Signal/Noise [1]: 50.3
- ECL signal [2]: 10300
- Signal/Noise [2]: 70.8

B13: Fab VH1-46_IGHD6-6*01_IGHJ1*01 S102A/S103P/S104F/H111F/I51T/N52L/P53W/S54T/G56H & L6_IGKJ1*01 (Fab, V domains shown)
VH: B1 VH with I51T, N52L, P53W, S54T, G56H, S102A, S103P, S104F, H111F
VL: not shown
notes: Tested as Fab expressed in E. coli (CH1 with His6/Flag tags from plasmid A; kappa CL from plasmid C); also called APFF TLWTH
- ELISA signal [5]: 0.433
- ECL signal [6]: 126000

B14: Fab VH1-46_IGHD6-6*01_IGHJ1*01 S103A & L6_IGKJ1*01 (Fab, V domains shown)
VH: B1 VH with S103A
VL: not shown
notes: as for B9
- ECL signal [3]: 1190
- Signal/Noise [3]: 4.5
- ECL signal [4]: 7110
- Signal/Noise [4]: 31.6

B15: Fab VH1-46_IGHD6-6*01_IGHJ1*01 S102A/S103P/S104F/H111F/I51T/N52L/P53G/S54T/G56H & L6_IGKJ1*01 (Fab, V domains shown)
VH: B1 VH with I51T, N52L, P53G, S54T, G56H, S102A, S103P, S104F, H111F
VL: not shown
notes: Tested as Fab expressed in E. coli (CH1 with His6/Flag tags from plasmid A; kappa CL from plasmid C); also called APFF TLGTH
- ELISA signal [5]: 0.018
- ECL signal [6]: 103000

B16: Fab VH1-46_IGHD6-6*01_IGHJ1*01 S102A/S103P/S104F/H111F S54A & L6_IGKJ1*01 (Fab, V domains shown)
VH: B1 VH with S54A, S102A, S103P, S104F, H111F
VL: not shown
notes: Fab made in E. coli; CH1 with tags and kappa CL are not included; also called APFF S54A; H:APFF S54A
- ELISA signal [9]: 0.02
